The text below walks through data of paper PMC5748159.

Like-named read-outs stand apart in the source and are kept apart here.

Common to all, as to test: SEC
For assay [1], the target named is Human S100A7 (psoriasin), oxidized, with Cys47–Cys96 disulfide bond (human) (UniProt P31151).
Assay [2] has as its target Human S100A7 (psoriasin), reduced, with Cys47 and Cys96 as free thiols (human) (UniProt P31151).
Assay [3] has as its target S100A7(C47A)(C96A) homodimer (human) (UniProt P31151).
Assay [4] has the same target. The source holds these as a separate data set.
The target in assay [5] is S100A7(C47S)(C96S) homodimer (human) (UniProt P31151).
Assay [6] has the same target. The source holds these as a separate data set.

As for “Human S100A7 (psoriasin), oxidized, with Cys47–Cys96 disulfide bond (from UniProt P31151 1-101) (natural protein)”, in assay [1], the stoichiometry N came to 2.

Substance “Human S100A7 (psoriasin), reduced, with Cys47 and Cys96 as free thiols (from UniProt P31151 1-101) (natural protein)” had a stoichiometry N in assay [2] of 2.

As to “S100A7(C47A)(C96A) homodimer (from UniProt P31151 1-101) (natural protein)”, the stoichiometry N in assay [3] and in assay [4] was 2 each time.

For “S100A7(C47S)(C96S) homodimer (from UniProt P31151 1-101) (natural protein)”, the stoichiometry N in assay [5] and in assay [6] was 2 in each case.
